Patent publication US20210317227A1

What was measured:
Experiment in all cases: cell-based or functional assay
[1] = molecular target: FcγRIIa on M2c macrophages (secondary ADCP assay) (UniProt P12318)
[2] = molecular target: FcγRIIIa on NK cells (secondary ADCC assays) (UniProt P08637)
[3] = molecular target: human FcγRIIa-H variant on Jurkat effector cells (human) (UniProt P12318)
[4] = molecular target: FcγRIIIa on Jurkat effector cells (UniProt P08637)

EC50 (nM) Mean [1] [nM] | EC50 (nM) Mean [2] [nM] | EC50 (nM) Mean [3] [nM] | EC50 (nM) Mean [4] [nM] | Substance
0.37 |  |  |  | afucosylated anti-CD20 IgG1 monoclonal antibody (obinutuzumab)
 | 0.0054 |  |  | afucosylated anti-PD-L1 IgG1 monoclonal antibody (avelumab)
0.82 | 0.033 | 7.1 | 7.1 | fucosylated anti-CD20 IgG1 monoclonal antibody (obinutuzumab)
 |  |  | 0.049 | fucosylated anti-PD-L1 IgG1 monoclonal antibody (avelumab)
